What was measured:
[1] = biological target: FcRn (Homo sapiens) (UniProt P55899); details: cited from earlier work
[2] = biological target: 1-B10-9 (new monomeric IgG1 Fc) T366R;L368H;P395K;K409T;M428L (UniProt P01857); assay: Bio-layer interferometry (Octet-Red96, Pall ForteBio); details: pH 6.0; 37°C; PBS (composition not stated); PBS adjusted to pH 6.0 or pH 7.4 (same buffer at both pH)
[3] = biological target: 1-D1-15 (Fc mutant, monomer/dimer mixture) T366H; Leu368 unchanged; Leu351 not mutated to Ser; position 395 is Lys or Arg by library design; residues at 409, 428 and 434 not stated in the text (Figure 2B only) (UniProt P01857); assay: as above; details: pH 6.0; 37°C; PBS (composition not stated); PBS adjusted to pH 6.0 or pH 7.4 (same buffer at both pH)
[4] = biological target: mFc (previously reported monomeric IgG1 Fc) L351S;T366R;L368H;P395K (UniProt P01857); assay: as above; details: pH 6.0; 37°C; PBS (composition not stated); PBS adjusted to pH 6.0 or pH 7.4 (same buffer at both pH)
[5] = biological target: wild-type IgG1 Fc (dimeric) (UniProt P01857); assay: as above; details: pH 6.0; 37°C; PBS (composition not stated); PBS adjusted to pH 6.0 or pH 7.4 (same buffer at both pH)
[6] = biological target: soluble human neonatal Fc receptor (FcRn) (human) (UniProt P55899); assay: BLI; Octet-Red96, biotin-labeled human FcRn on streptavidin tips, Fc proteins 10 to 0.625 µM as analytes, PBS with 0.02% Tween 20, pH 6.0, 37°C, 1:1 model
soluble human neonatal Fc receptor (FcRn) (human), sequence (P55899 24-297, chain 1 of 2): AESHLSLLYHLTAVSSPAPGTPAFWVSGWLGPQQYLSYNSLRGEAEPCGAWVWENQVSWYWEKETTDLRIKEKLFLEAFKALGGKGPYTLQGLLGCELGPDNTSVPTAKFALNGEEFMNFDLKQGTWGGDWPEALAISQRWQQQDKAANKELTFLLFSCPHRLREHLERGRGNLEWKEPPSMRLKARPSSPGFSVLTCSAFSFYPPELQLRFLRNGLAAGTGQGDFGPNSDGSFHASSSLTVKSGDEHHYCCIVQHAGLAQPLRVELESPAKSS
soluble human neonatal Fc receptor (FcRn) (human), sequence (P61769 21-119, chain 2 of 2, further chain): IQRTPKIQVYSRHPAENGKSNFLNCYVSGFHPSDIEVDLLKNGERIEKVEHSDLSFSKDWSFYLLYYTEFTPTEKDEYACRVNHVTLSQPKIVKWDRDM

FcRn (Homo sapiens), sequence (P55899 24-365, chain 1 of 2): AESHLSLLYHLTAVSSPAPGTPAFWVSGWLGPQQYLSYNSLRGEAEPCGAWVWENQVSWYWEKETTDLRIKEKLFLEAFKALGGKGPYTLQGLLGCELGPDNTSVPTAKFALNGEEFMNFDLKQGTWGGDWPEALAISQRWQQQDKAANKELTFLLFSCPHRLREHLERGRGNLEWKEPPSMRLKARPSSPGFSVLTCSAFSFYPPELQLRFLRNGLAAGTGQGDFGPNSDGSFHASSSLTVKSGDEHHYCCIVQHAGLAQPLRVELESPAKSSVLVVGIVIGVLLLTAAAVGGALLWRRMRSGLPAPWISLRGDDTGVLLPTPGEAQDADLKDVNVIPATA
FcRn (Homo sapiens), sequence (partner, as listed by the source, chain 2 of 2): as the sequence (P61769 21-119, chain 2 of 2, further chain) above

IgG1 Fc Fc (from UniProt P01857)
Kd [1]: 110 nM

neonatal Fc receptor (FcRn), soluble, biotinylated
koff [2]: 0.00056 s⁻¹
kon [2]: 1100 M⁻¹ s⁻¹
kon [3]: 3800 M⁻¹ s⁻¹
koff [4]: 0.00064 s⁻¹
kon [4]: 1200 M⁻¹ s⁻¹
koff [5]: 0.0003 s⁻¹
kon [5]: 1100 M⁻¹ s⁻¹

wild-type dimeric IgG1 Fc (domain or fragment)
Kd [6]: 260 nM
koff [6]: 0.0003 s⁻¹
kon [6]: 1100 M⁻¹ s⁻¹

— PMC5693891
